From publication PMC4112642, “Tomato PYR/PYL/RCAR abscisic acid receptors show high expression in root, differential sensitivity to the abscisic acid agonist quinabactin, and the capability to enhance plant drought resistance” (Journal of Experimental Botany, 2014)
Values belong to the molecule of their own block, whether it stands above or below them.

Tests used:
[1] = target: 6g061180 tomato ABA receptor, recombinant, purified for size exclusion chromatography (tomato (Solanum lycopersicum)); test: SEC; Superdex200 10/30 in 25mM TRIS-HCl pH 8.0, 200mM NaCl, 5mM beta-mercaptoethanol, in the absence of ABA; about 1mg loaded of 8g076960, 6g061180 or 6g050500 (concentrated to 10mg ml^-1), 0.1mg of 12g055990 (0.7mg ml^-1)
[2] = target: 8g076960 tomato ABA receptor, recombinant, purified for size exclusion chromatography (tomato (Solanum lycopersicum)); test: as above
[3] = target: T1, 8g076960 (Sl08g076960) with ΔN 12g096020 (Solanum lycopersicum, UniProt A0A3Q7HTY9); test: receptor-mediated PP2C inhibition, RRA(phosphoT)VA phosphopeptide, molybdate dye; assay type: biochemical; settings: agonist; 0.5 μM PP2C, 2 μM receptor, 0.1-10 μM ligand; 10 mM MgCl2, pH 7.5, 30 °C
T1 construct: gene LOC101268417; PP2C N-terminally deleted catalytic core 178-509; with Protein phosphatase 2C HAB1-like (clade A)

[4] = target: T2, 6g061180 (Sl06g061180) with ΔN 12g096020 (Solanum lycopersicum, UniProt A0A3Q7HQZ7); test: as above; assay type: biochemical; settings: agonist; 0.5 μM PP2C, 2 μM receptor, 0.1-10 μM ligand; 10 mM MgCl2, pH 7.5, 30 °C
T2 construct: gene LOC101267127; PP2C N-terminally deleted catalytic core 178-509; with Protein phosphatase 2C HAB1-like (clade A)

[5] = target: the molecule itself; test: SEC; Superdex200 10/30 in 25mM TRIS-HCl pH 8.0, 200mM NaCl, 5mM beta-mercaptoethanol, in the absence of ABA; about 1mg loaded of 8g076960, 6g061180 or 6g050500 (concentrated to 10mg ml^-1), 0.1mg of 12g055990 (0.7mg ml^-1)

T2 sequence (A0A3Q7HQZ7 entry or part of it, stated change not applied): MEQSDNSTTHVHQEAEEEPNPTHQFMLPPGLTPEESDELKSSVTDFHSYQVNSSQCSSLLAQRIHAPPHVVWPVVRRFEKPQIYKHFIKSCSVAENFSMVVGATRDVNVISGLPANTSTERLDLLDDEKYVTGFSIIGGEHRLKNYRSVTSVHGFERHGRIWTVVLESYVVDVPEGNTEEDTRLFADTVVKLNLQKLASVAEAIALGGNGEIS
T1 sequence (A0A3Q7HTY9 entry or part of it, stated change not applied): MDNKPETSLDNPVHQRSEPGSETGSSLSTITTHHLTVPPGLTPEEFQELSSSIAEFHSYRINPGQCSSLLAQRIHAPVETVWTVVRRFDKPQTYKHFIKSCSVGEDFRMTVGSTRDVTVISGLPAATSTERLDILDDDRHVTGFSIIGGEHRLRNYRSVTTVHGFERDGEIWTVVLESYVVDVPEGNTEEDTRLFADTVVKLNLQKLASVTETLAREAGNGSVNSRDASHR

stoichiometry N [1]: 2
Molecule: 6g061180 tomato ABA receptor, recombinant, purified for size exclusion chromatography

stoichiometry N [2]: 2
Molecule: 8g076960 tomato ABA receptor, recombinant, purified for size exclusion chromatography

Continued, molecule first:

Molecule: CCCN1C(=O)CCc2cc(NS(=O)(=O)Cc3ccc(C)cc3)ccc21 [quinabactin]
% PP2C activity [3]: QB inhibited (compared with ABA) ΔN12g096020 phosphatase activity efficiently through the dimeric tomato receptors 8g076960 | % PP2C activity [4]: efficiently through the dimeric tomato receptors 8g076960 and 6g061180

B1: 6g050500 tomato ABA receptor, recombinant, purified for size exclusion chromatography (receptor)
chain: MPSSLQLHRINPTTATLAVKQPQLSQATTWFSPVSTSVPDNVLHHHTHVVGPNQCCSAVLQSISAPIDTVWSLVRRFDNPQAYKHFLKSCHVIVGDGDVGTLREVRVVSGLPAGSSTERLEILDDEKHVLSFSVVGGDHRLNNYRSVTTLHRAAEEGSTVVVESYVVDVPQGNTKEETCVFVDTIVRCNLQSLAQIAQNLAKTSKNHDEDPQLKIHRLVDFV
stoichiometry N [5]: 2
